Assay results as given in patent publication US20200399381A1 (I MAB BIOPHARMA US, published 2020).

T1: human IFNAR-1 protein (form not stated) (human, UniProt P17181 28-436, limits assumed)
T1 construct: bispecific ELISA
T1 sequence (looked up): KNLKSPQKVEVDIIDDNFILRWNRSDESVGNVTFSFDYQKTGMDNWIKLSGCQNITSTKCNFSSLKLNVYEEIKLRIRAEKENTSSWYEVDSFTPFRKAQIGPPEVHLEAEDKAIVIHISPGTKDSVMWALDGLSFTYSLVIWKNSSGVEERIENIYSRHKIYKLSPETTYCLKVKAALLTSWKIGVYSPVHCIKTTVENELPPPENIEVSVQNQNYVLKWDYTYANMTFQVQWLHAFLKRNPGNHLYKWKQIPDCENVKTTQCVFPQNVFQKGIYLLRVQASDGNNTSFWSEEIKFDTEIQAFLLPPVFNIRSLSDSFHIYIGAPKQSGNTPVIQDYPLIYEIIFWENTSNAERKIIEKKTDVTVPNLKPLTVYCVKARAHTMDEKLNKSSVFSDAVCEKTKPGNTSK

B1: 485G10 humanized VH0 + VL1 (antibody, V domains shown)
VH: QVQLVQSGAEVKKPGASVKVSCKASGFNIKDYYIHWVRQAPGQGLEWMGRIDPEDAETKYAPKFQGRVTMTRDTSISTAYMELSRLRSDDTVVYYCARYHGYWALDYWGQGTLVTVSS
VL: DIQMTQSPSSLSASVGDRVTITCKTSQNVGTNVAWFQQKPGKAPKSLIYSTSYRYSGVPSRFSGSGSGTDFTLTISSLQPEDFATYYCHQYFSYPYTFGPGTKVDIK
notes: Humanized IgG expressed in HEK293; also called VH0 + VL1 (485G10)
B2: 485G10 humanized VH0 + VL4 (antibody, V domains shown)
VH: QVQLVQSGAEVKKPGASVKVSCKASGFNIKDYYIHWVRQAPGQGLEWMGRIDPEDAETKYAPKFQGRVTMTRDTSISTAYMELSRLRSDDTVVYYCARYHGYWALDYWGQGTLVTVSS
VL: DIQMTQSPSSLSTSVGDRVTVTCKTSQNVGTNVAWYQQKPGKAPKPLIYSTSYRYSGVPSRFSGSGSGTDFTLTISSVQPEDFATYYCHQYFSYPYTFGPGTKLDIK
notes: Humanized IgG expressed in HEK293; also called VH0 + VL4 (485G10)
B3: 485G10 humanized VH0 + VL2 (antibody, V domains shown)
VH: QVQLVQSGAEVKKPGASVKVSCKASGFNIKDYYIHWVRQAPGQGLEWMGRIDPEDAETKYAPKFQGRVTMTRDTSISTAYMELSRLRSDDTVVYYCARYHGYWALDYWGQGTLVTVSS
VL: DIQMTQSPSSLSTSVGDRVTITCKTSQNVGTNVAWYQQKPGKAPKPLIYSTSYRYSGVPSRFSGSGSGTDFTLTISSLQPEDFATYYCHQYFSYPYTFGPGTKVDIK
notes: Humanized IgG expressed in HEK293; also called VH0 + VL2 (485G10)
B4: 485G10 humanized VH2 + VL2 (antibody, V domains shown)
VH: QVQLVQSGAEVKKPGASVKLSCKASGFNIKDYYIHWVKQAPGQGLEWIGRIDPEDAETKYAPKFQGRVTMTADTSISTAYMELSRLRSDDTVVYYCGRYHGYWALDYWGQGTLVTVSS
VL: DIQMTQSPSSLSTSVGDRVTITCKTSQNVGTNVAWYQQKPGKAPKPLIYSTSYRYSGVPSRFSGSGSGTDFTLTISSLQPEDFATYYCHQYFSYPYTFGPGTKVDIK
notes: Humanized IgG expressed in HEK293; also called VH2 + VL2 (485G10)
B5: 485G10 humanized VH2 + VL1 (antibody, V domains shown)
VH: QVQLVQSGAEVKKPGASVKLSCKASGFNIKDYYIHWVKQAPGQGLEWIGRIDPEDAETKYAPKFQGRVTMTADTSISTAYMELSRLRSDDTVVYYCGRYHGYWALDYWGQGTLVTVSS
VL: DIQMTQSPSSLSASVGDRVTITCKTSQNVGTNVAWFQQKPGKAPKSLIYSTSYRYSGVPSRFSGSGSGTDFTLTISSLQPEDFATYYCHQYFSYPYTFGPGTKVDIK
notes: Humanized IgG expressed in HEK293; also called VH2 + VL1 (485G10)
B6: 485G10 humanized VH0 + VL3 (antibody, V domains shown)
VH: QVQLVQSGAEVKKPGASVKVSCKASGFNIKDYYIHWVRQAPGQGLEWMGRIDPEDAETKYAPKFQGRVTMTRDTSISTAYMELSRLRSDDTVVYYCARYHGYWALDYWGQGTLVTVSS
VL: DIQMTQSPSSLSTSVGDRVTITCKTSQNVGTNVAWYQQKPGKAPKPLIYSTSYRYSGVPSRFSGSGSGTDFTLTISSVQPEDFATYYCHQYFSYPYTFGPGTKLDIK
notes: Humanized IgG expressed in HEK293; also called VH0 + VL3 (485G10)
B7: 485G10 humanized VH2 + VL4 (antibody, V domains shown)
VH: QVQLVQSGAEVKKPGASVKLSCKASGFNIKDYYIHWVKQAPGQGLEWIGRIDPEDAETKYAPKFQGRVTMTADTSISTAYMELSRLRSDDTVVYYCGRYHGYWALDYWGQGTLVTVSS
VL: DIQMTQSPSSLSTSVGDRVTVTCKTSQNVGTNVAWYQQKPGKAPKPLIYSTSYRYSGVPSRFSGSGSGTDFTLTISSVQPEDFATYYCHQYFSYPYTFGPGTKLDIK
notes: Humanized IgG expressed in HEK293; also called VH2 + VL4 (485G10)
B8: 485G10 humanized VH1 + VL1 (antibody, V domains shown)
VH: QVQLVQSGAEVKKPGASVKVSCKASGFNIKDYYIHWVRQAPGQGLEWMGRIDPEDAETKYAPKFQGRVTMTADTSISTAYMELSRLRSDDTVVYYCARYHGYWALDYWGQGTLVTVSS
VL: DIQMTQSPSSLSASVGDRVTITCKTSQNVGTNVAWFQQKPGKAPKSLIYSTSYRYSGVPSRFSGSGSGTDFTLTISSLQPEDFATYYCHQYFSYPYTFGPGTKVDIK
notes: Humanized IgG expressed in HEK293; also called VH1 + VL1 (485G10)

biological target: T1, human IFNAR-1 protein (form not stated); assay: affinity ranking of expressed humanized 485G10 IgGs (method not named)

In order of rising Kd:
1. B4  0.906 nM
2. B7  0.99 nM
3. B6  1.07 nM
4. B2  1.25 nM
5. B3  1.57 nM
6. B8  3.14 nM
7. B1  9.33 nM
8. B5  20.5 nM

In order of falling koff:
1. B5  0.00663 s⁻¹
2. B1  0.00475 s⁻¹
3. B8  0.00103 s⁻¹
4. B3  0.000439 s⁻¹
5. B2  0.000318 s⁻¹
6. B6  0.000316 s⁻¹
7. B7  0.0003 s⁻¹
8. B4  0.000298 s⁻¹

In order of rising kon:
1. B2  255000 M⁻¹ s⁻¹
2. B3  279000 M⁻¹ s⁻¹
3. B6  294000 M⁻¹ s⁻¹
4. B7  303000 M⁻¹ s⁻¹
5. B5  323000 M⁻¹ s⁻¹
6. B8  328000 M⁻¹ s⁻¹
7. B4  329000 M⁻¹ s⁻¹
8. B1  509000 M⁻¹ s⁻¹
